Source: patent US20200282017A1 (CLEVELAND CLINIC FOUNDATION, published 2020)

How the values were obtained:
[1] = target: T1, E. coli (K12) FimH, wild type, on the surface of E. coli (Escherichia coli (K12), UniProt P08191 22-300); experiment: flow cytometry of FimH+ or FimH- E. coli (K12) treated with Box A protein and stained with anti-HIS antibody
T1 construct: whole, on cells; also called FimH-WT; fimbrial protein H

[2] = target: T1, E. coli (K12) FimH, wild type, on the …; experiment: immunofluorescence microscopy of E. coli +/- FimH exposed to recombinant HMGB1, stained with anti-HMGB1 antibody

T1 sequence (P08191 22-300): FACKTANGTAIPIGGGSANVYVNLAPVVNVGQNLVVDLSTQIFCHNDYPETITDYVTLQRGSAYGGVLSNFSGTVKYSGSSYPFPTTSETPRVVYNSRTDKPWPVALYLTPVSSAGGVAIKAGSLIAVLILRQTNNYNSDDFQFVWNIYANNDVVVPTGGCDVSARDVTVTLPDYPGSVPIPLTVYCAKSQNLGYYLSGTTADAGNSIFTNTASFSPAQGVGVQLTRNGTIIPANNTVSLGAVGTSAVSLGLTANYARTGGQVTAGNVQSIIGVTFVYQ

Binder | binding result [1] | binding result [2]
Box A protein, truncation mutant composed of aa 2-97 of HMGB1 (other, The position of the His tag is unknown; also called Box A from HMGB1; not shown: His tag implied by detection with anti-HIS antibody) GKGDPKKPRGKMSSYAFFVQTCREEHKKKHPDASVNFSEFSKKCSERWKTMSAKEKGKFEDMAKADKARYEREMKTYIPPKGETKKKFKDPNAPKR | binds | 
High mobility group box 1 (HMGB1), recombinant human HMGB1 produced in mammalian cells (other, also called recombinant HMGB1; full-length HMGB1 protein) MGKGDPKKPRGKMSSYAFFVQTCREEHKKKHPDASVNFSEFSKKCSERWKTMSAKEKGKFEDMAKADKARYEREMKTYIPPKGETKKKFKDPNAPKRPPSAFFLFCSEYRPKIKGEHPGLSIGDVAKKLGEMWNNTAADDKQPYEKKAAKLKEKYEKDIAAYRAKGKPDAAKKGVVKAEKSKKKKEEEEDEEDEEDEEEEEDEEDEDEEEDDDDE |  | binds
